Our source for the Kd values is article PMC10870365, “Dissection of protein and RNA regions required for SPEN binding to XIST A-repeat RNA”.

The target of the data set is T1, SPEN RRM 2-3 (Homo sapiens) (UniProt Q96T58).
T1 sequence: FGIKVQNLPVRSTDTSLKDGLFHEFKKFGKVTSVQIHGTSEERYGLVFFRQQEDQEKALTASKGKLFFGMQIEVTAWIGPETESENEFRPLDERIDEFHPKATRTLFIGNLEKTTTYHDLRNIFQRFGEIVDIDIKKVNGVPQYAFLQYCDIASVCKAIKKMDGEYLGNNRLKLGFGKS
Briefly: EMSA. As to conditions: EMSA: 20 mM Tris-HCl pH 7.5, 150 mM KCl, 5 mM MgCl2, 10% glycerol, room temperature 30 min, 2 nM each labeled RNA (multiplexed), 4.5% TBE native gel. In general terms: A gel shift assay detects complexes by their altered migration in electrophoresis.

What is called Kd is the equilibrium constant for the complex coming apart. Turning to “GUACCAGGUAUGUGAUGACAUCAGCCGACGCCUGGCACUGCUGCAGGAACAGUGGGCUGGAGGAAAGUUGUCAAUACCUGUAAAGAAGAGAAUGGCUCUACUGGUGCAAGAGCUUUCAAGCCACCGGUGGGACGCAGCAGAUGACAUCCACCGCUCCCUCAUGGUUGACCAUGUGACUGAGGUCAGUCAGUGGAUGGUAGGAGUUAAAAGAUUAAUUGCAGAAAAGAGGAGUCUGUUUUCAGAGGAGGCAGCCAAUGAAGAGAAAUCUGCAGCCACAGCUGAGAAGAACCAUACCAUACCAGGCUUCCAGCAGGCUUCAUAAUCCUCGGUUCCCCAGACUCACCGGACACCAUCUCCU [SRA]”, the Kd stood at 5.57 µM.
Sequence “GGGCUGCGGAUACCUGGUUUUAUUAUUUUUUCUUUGCCCAACGGGGCCGUGGAUACCUGCCUUUUAAUUCUUUUUUAUUCGCCCAUCGGGGCCGCGGAUACCUGCUUUUUAUUUUUUUUUCCUUAGCCCAUCGGGGUAUCGGAUACCUGCUGAUUCCCUUCCCCUCUGAACCCCCAACACUCUGGCCCAUCGGGGUGACGGAUAUCUGCUUUUUAAAAAUUUUCUUUUUUUGGCCCAUCGGGGCUUCGGAUACCUGCUUUUUUUUUUUUUAUUUUUCCUUGCCCAUCGGGGCCUCGGAUACCUGCUUUAAUUUUUGUUUUUCUGGCCCAUCGGGGCCGCGGAUACCUGCUUUGAUUUUUUUUUUUCAUCGCCCAUCGGUGCU [XIST A-full]” showed a Kd of 1.05 µM.
